Experimental data published in article PMC2906495, “A kinesin motor in a force-producing conformation” (BMC Structural Biology, 2010).

Columns and labels:
[1] = biological target: microtubules (polymerized tubulin)
[2] = biological target: the molecule itself; assay: crystal structure; NcdT436S at 4.5 mg/ml incubated with 4 mM MgCl2 and 4 mM ATP, hanging drops at room temperature, 11.5% PEG 8K, 25 mM sodium-phosphate pH 6.26, 0.5 M NaCl; molecular replacement with PDB 1N6M; two chains (A, B) joined by the coiled-coil stalk

K (m,MTs) of the microtubule-stimulated steady-state ATPase (0.5 μM motor, 1 mM MgATP, 0-2.5 μM microtubules) [1] [µM] | Binder | binding result [2]
1.3 | GST/NcdT436S (GST-…-K210-K700) (domain or fragment) SDLVPRGSPVKTKYEKQTEDMGELESMPQQLEETQNKLIETESSLKNTQSDNECLQRQVKQHTAKIETITSTLGRTKEELSELQAIHEKVKTEHAALSTEVVHLRQRTEELLRCNEQQAAELETCKEQLFQSNMERKELHNTVMDLRGNIRVFCRIRPPLESEENRMCCTWTYHDESTVELQSIDAQAKSKMGQQIFSFDQVFHPLSSQSDIFEMVSPLIQSALDGYNICIFAYGQSGSGKTYTMDGVPESVGVIPRTVDLLFDSIRGYRNLGWEYEIKATFLEIYNEVLYDLLSNEQKDMEIRMAKNNKNDIYVSNITEETVLDPNHLRHLMHTAKMNRATASTAGNERSSRSHAVTKLELIGRHAEKQEISVGSINLVDLAGSESPKTSTRMTETKNINRSLSELTNVILALLQKQDHIPYRNSKLTHLLMPSLGGNSKTLMFINVSPFQDCFQESVKSLRFAASVNSCKMTKAKRNRYLNNSVANSSTQSNNSGSFDK | –
1.6 | wild-type GST/Ncd (GST/MC1) (domain or fragment) KTKYEKQTEDMGELESMPQQLEETQNKLIETESSLKNTQSDNECLQRQVKQHTAKIETITSTLGRTKEELSELQAIHEKVKTEHAALSTEVVHLRQRTEELLRCNEQQAAELETCKEQLFQSNMERKELHNTVMDLRGNIRVFCRIRPPLESEENRMCCTWTYHDESTVELQSIDAQAKSKMGQQIFSFDQVFHPLSSQSDIFEMVSPLIQSALDGYNICIFAYGQTGSGKTYTMDGVPESVGVIPRTVDLLFDSIRGYRNLGWEYEIKATFLEIYNEVLYDLLSNEQKDMEIRMAKNNKNDIYVSNITEETVLDPNHLRHLMHTAKMNRATASTAGNERSSRSHAVTKLELIGRHAEKQEISVGSINLVDLAGSESPKTSTRMTETKNINRSLSELTNVILALLQKQDHIPYRNSKLTHLLMPSLGGNSKTLMFINVSPFQDCFQESVKSLRFAASVNSCKMTKAKRNRYLNNSVANSSTQSNNSGSFDK | –
– | NcdT436S, nonfusion protein for crystallization (MGSM-H293-K700) (domain or fragment, Drosophila, N-terminal leader of the construct MGSM-H293-K700; kinesin-14 Ncd of Drosophila, residues H293-K700 (part of the coiled-coil stalk, neck, motor domain and C-terminus), with T436S in the P-loop; The printed mass of 93,692 Da fits two chains (dimer); In the crystal, chain A is visible from M292 to K671 and chain B from G290 to K674; also called kinesin-14 Ncd T436S; source: E. coli BL21(DE3)pLysS …) MGSMHAALSTEVVHLRQRTEELLRCNEQQAAELETCKEQLFQSNMERKELHNTVMDLRGNIRVFCRIRPPLESEENRMCCTWTYHDESTVELQSIDAQAKSKMGQQIFSFDQVFHPLSSQSDIFEMVSPLIQSALDGYNICIFAYGQSGSGKTYTMDGVPESVGVIPRTVDLLFDSIRGYRNLGWEYEIKATFLEIYNEVLYDLLSNEQKDMEIRMAKNNKNDIYVSNITEETVLDPNHLRHLMHTAKMNRATASTAGNERSSRSHAVTKLELIGRHAEKQEISVGSINLVDLAGSESPKTSTRMTETKNINRSLSELTNVILALLQKQDHIPYRNSKLTHLLMPSLGGNSKTLMFINVSPFQDCFQESVKSLRFAASVNSCKMTKAKRNRYLNNSVANSSTQSNNSGSFDK | binds
